The target of test [1] is T1, human c-Met (HGFR), full length, on the cell surface (human, UniProt P08581 25-1390).
T1 construct: Endogenous c-Met on human tumor cell lines MKN45, NCI-H596, PC-3 and HepG2; also called hepatocyte growth factor receptor; mesenchymal-epithelial transition factor
Briefly: flow cytometry on MKN45, NCI-H596 and PC-3 cells. The method, then: (§1) Cellular binding of the 14 wild-type chimeric and the 14 HC-41C chimeric anti-c-Met antibodies was studied in human c-Met-positive tumor cell lines MKN45, NCI-H596 and PC-3, rhesus c-Met-positive tumor cell line 4 MBr-5, and human c-Met-negative tumor cell line MDA-MB-175-VII. Cells were used around 90% of confluence at the time of an assay, detached with Trypsin-Versene (EDTA) (Lonza) for 5-10 minutes, washed and adjusted to a concentration of 1×10⁶ cells/mL in ice-cold FACS buffer (PBS 1×, 0.1% v/w BSA, 0.02% v/v sodium azide (NaN₃)). Staining was performed in 96-well round-bottomed microtiter plates using ice-cold reagents/solutions at 4° C. to prevent the modulation and internalization of surface antigens. 100,000 cells/well were added to 96-well plates (100 μL/well) and centrifuged at 300×g for 3 minutes. In case of pre-incubation with HGF (paracrine cell lines only), the cells were resuspended in 50 ng/mL recombinant human HGF in FACS buffer (50 μL/well) and incubated for 30 minutes at 4° C., followed by two wash steps with 150 μL FACS buffer. Supernatant was discarded and cells were stained for 30 minutes with 50 μL of each antibody. Serial dilutions were made in ice-cold FACS buffer. Cells were washed twice by centrifugation at 300×g for 3 minutes and resuspended in 50 μL 6000-times diluted secondary F(ab′)₂ goat anti-human IgG (Fc fragment specific) antibody APC-conjugated (Jackson ImmunoResearch). Following a 30-minute incubation on ice, cells were washed again 2 times and resuspended in 150 μL ice-cold FACS buffer for FACS analysis. For analysis of the data, the Median Fluorescence Intensity (MFI) values were obtained.
(A flow cytometer gives signals particle by particle.)

A further test concerns the target T2, c-Met (Homo sapiens, UniProt P08581, DEL964-1010).
T2 construct: endogenous in cells; host or cells: NCI-H596
Briefly: Functionality of chimeric antibodies, stimulation of proliferation experiment in NCI-H596 cells. In kind it is cell-based. The source says: From this perspective, although all three wt/41C chimeric mAbs were humanized and studied in further experiments, wt/41C-chi-mAb3 is the most preferred chimeric anti-c-Met antibody to further develop into an ADC for treatment of a cancer indication.

The target in test [2] is T1, human c-Met (HGFR), full length, on the …. Briefly: flow cytometry, NCI-H596 cells, without HGF. How it is done: as §1, with “in total 75 humanized” for “14 wild-type chimeric and the 14 HC-41C chimeric”, “antibodies (originating from the three selected chimeric antibodies)” for “antibodies”, “HGF,” for “HGF (paracrine cell lines only),”
Test [3] addresses T3, rhesus c-Met on 4MBr-5 cells (rhesus, UniProt F7H1K4 25-1381, Natural c-Met is cleaved at the furin site (KRKKR/S) into disulphide-linked alpha and beta subunits; given here as one mature polypeptide.).
T3 construct: also called rhesus c-Met antigen
The test can be described thus: flow cytometry, 4MBr-5 cells, without HGF. The method, then:
as §1, with “in total 75 humanized” for “14 wild-type chimeric and the 14 HC-41C chimeric”, “antibodies (originating from the three selected chimeric antibodies)” for “antibodies”, “HGF,” for “HGF (paracrine cell lines only),”

For test [4], the target named is T3, rhesus c-Met on 4MBr-5 cells. Briefly: flow cytometry, 4MBr-5 cells; EC50 with 50 ng/mL HGF against EC50 without HGF. The method, then: as §1, with “in total 75 humanized” for “14 wild-type chimeric and the 14 HC-41C chimeric”, “antibodies (originating from the three selected chimeric antibodies)” for “antibodies”, “HGF,” for “HGF (paracrine cell lines only),”

The target is the same in test [5]. Briefly: flow cytometry, 4MBr-5 cells pre-incubated with 50 ng/mL HGF. How it is done:
as §1, with “in total 75 humanized” for “14 wild-type chimeric and the 14 HC-41C chimeric”, “antibodies (originating from the three selected chimeric antibodies)” for “antibodies”, “HGF,” for “HGF (paracrine cell lines only),”

Test [6] addresses T1, human c-Met (HGFR), full length, on the …. Briefly: flow cytometry, PC-3 cells pre-incubated with 50 ng/mL HGF. How it is done:
as §1, with “in total 75 humanized” for “14 wild-type chimeric and the 14 HC-41C chimeric”, “antibodies (originating from the three selected chimeric antibodies)” for “antibodies”, “HGF,” for “HGF (paracrine cell lines only),”

Test [7] has the same target. The test can be described thus: flow cytometry, NCI-H596 cells pre-incubated with 50 ng/mL HGF. The method, then: as §1, with “in total 75 humanized” for “14 wild-type chimeric and the 14 HC-41C chimeric”, “antibodies (originating from the three selected chimeric antibodies)” for “antibodies”, “HGF,” for “HGF (paracrine cell lines only),”
Test [8] shares this target. Briefly: flow cytometry, NCI-H596 cells; EC50 with 50 ng/mL HGF against EC50 without HGF. The method, then:
as §1, with “in total 75 humanized” for “14 wild-type chimeric and the 14 HC-41C chimeric”, “antibodies (originating from the three selected chimeric antibodies)” for “antibodies”, “HGF,” for “HGF (paracrine cell lines only),”

Test [9] has the same target. Briefly: flow cytometry, PC-3 cells, without HGF. How it is done:
as §1, with “in total 75 humanized” for “14 wild-type chimeric and the 14 HC-41C chimeric”, “antibodies (originating from the three selected chimeric antibodies)” for “antibodies”, “HGF,” for “HGF (paracrine cell lines only),”

Test [10] has the same target. Briefly: flow cytometry, MKN45 cells, without HGF. The method, then: as §1, with “in total 75 humanized” for “14 wild-type chimeric and the 14 HC-41C chimeric”, “antibodies (originating from the three selected chimeric antibodies)” for “antibodies”, “HGF,” for “HGF (paracrine cell lines only),”
Test [11] has the same target. Briefly: flow cytometry, PC-3 cells; EC50 with 50 ng/mL HGF against EC50 without HGF. How it is done: as §1, with “in total 75 humanized” for “14 wild-type chimeric and the 14 HC-41C chimeric”, “antibodies (originating from the three selected chimeric antibodies)” for “antibodies”, “HGF,” for “HGF (paracrine cell lines only),”

Where a chain is given by its changes, count along the chain named. In names and notes the source's numbering stands.

T3 sequence (F7H1K4 entry or part of it limits assumed): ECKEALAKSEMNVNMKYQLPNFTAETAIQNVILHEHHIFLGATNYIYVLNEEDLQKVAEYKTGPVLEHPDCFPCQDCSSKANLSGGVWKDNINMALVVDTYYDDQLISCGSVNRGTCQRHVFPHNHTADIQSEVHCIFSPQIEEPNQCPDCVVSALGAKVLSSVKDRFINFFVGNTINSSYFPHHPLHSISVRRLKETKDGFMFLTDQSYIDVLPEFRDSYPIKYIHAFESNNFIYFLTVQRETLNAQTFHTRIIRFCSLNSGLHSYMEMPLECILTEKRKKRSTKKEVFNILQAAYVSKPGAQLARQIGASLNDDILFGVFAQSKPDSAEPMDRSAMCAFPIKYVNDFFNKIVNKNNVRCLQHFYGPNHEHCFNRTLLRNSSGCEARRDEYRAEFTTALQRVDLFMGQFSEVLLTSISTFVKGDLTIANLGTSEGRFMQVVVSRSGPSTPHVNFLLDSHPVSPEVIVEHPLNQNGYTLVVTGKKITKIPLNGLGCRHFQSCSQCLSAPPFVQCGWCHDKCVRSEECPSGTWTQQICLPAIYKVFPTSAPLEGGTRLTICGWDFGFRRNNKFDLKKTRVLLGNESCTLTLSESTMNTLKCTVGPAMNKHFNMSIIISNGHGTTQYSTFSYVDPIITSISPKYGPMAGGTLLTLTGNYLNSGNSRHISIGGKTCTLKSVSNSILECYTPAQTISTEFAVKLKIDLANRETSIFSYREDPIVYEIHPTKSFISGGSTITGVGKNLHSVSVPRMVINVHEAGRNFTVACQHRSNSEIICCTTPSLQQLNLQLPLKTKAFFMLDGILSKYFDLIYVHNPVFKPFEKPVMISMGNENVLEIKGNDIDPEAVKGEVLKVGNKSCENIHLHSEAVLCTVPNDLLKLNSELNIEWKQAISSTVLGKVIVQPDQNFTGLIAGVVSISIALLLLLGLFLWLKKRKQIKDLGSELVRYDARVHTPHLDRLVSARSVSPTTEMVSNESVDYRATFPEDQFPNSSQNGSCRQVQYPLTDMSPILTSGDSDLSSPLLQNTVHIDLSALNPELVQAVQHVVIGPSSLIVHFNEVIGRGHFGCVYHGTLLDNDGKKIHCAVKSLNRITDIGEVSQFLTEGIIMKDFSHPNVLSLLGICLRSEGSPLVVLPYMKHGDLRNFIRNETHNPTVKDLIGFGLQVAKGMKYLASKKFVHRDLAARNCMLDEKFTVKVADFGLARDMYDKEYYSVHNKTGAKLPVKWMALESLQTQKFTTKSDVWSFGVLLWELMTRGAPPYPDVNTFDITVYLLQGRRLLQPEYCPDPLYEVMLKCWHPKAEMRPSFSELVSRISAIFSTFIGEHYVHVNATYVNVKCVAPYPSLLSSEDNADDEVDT

B1: wt-chi-mAb3 (antibody, human IgG1, kappa, V domains shown)
VH: QIQLQQSGPELVKPGASVKISCKASGYTFTDYYLNWVKQRPGQGLEWIGLIFPGNDKTEYSEKFKGKATLTVDTSSSTAYIQLSRLSSEDSAIYFCSGGDYGGFVYWGQGTLVTVSS
VL: DIQMTQSPTSLSASVGETVTITCGASENIYGALNWYQRKQGKSPQLLIYGATNLADGMSSRFSGSGSGRQFSLKINSLHPDDVATYFCQNVLSSPLTFGSGTKLEIKR
notes: Mouse/human chimeric IgG1 kappa; also called wild-type chimeric antibody mAb3
Take B1: the binding result in [1] is “binds”.

B2: 41C-chi-mAb3: HC-41C chimeric anti-c-Met IgG1 antibody, VH SEQ ID NO:9, VL SEQ ID NO:6 (antibody, V domains shown)
VH: B1 VH with P41C
VL: DIQMTQSPTSLSASVGETVTITCGASENIYGALNWYQRKQGKSPQLLIYGATNLADGMSSRFSGSGSGRQFSLKINSLHPDDVATYFCQNVLSSPLTFGSGTKLEIK
modifications: IgG1 constant regions; HCVR - VH P41C; LCVR
Regarding B2, the Functionality entry with c-Met is “Neutral”.

B3: wt-chi-mAb3: wild-type chimeric anti-c-Met IgG1 antibody, VH SEQ ID NO:5, VL SEQ ID NO:6 (antibody, V domains shown)
VH: B1 VH
VL: B2 VL
modifications: human IgG1 constant regions; HCVR; LCVR
In the case of B3, in the test with c-Met, the Functionality result is “Neutral”.

B4: 41C-chi-mAb3 (antibody, human IgG1, kappa, V domains shown)
VH: B1 VH with P41C
VL: B1 VL
notes: Chimeric IgG1 kappa with an engineered cysteine at HC position 41 (Kabat); also called HC-41C chimeric antibody mAb3
With B4, the binding result in test [1] is given as “binds”.

B5: wt-chi-mAb2 (antibody, human IgG1, kappa, V domains shown)
VH: QVQLQQSGAELVRPGASVKLSCKASGYVFPDYEMHWVKQTPVHGLEWIGAFDPETGDTTYNQNFKGKATLTADKASSTAYMDLRSLTSGDSAVYYCARDYKYLYYYAMDNWGQGTSVTVSS
VL: QIVLTQSPAIMSASLGERVTMTCTASSSITSSYLHWYQQKPGSSPKLWIYSTTNLASGVPGRFSGSGSGTSFSLTISSMEAEDAATYYCHQYRRSPLTFGAGTKLELKR
notes: Mouse/human chimeric IgG1 kappa; also called wild-type chimeric antibody mAb2
Take B5: in test [1], the binding result is given as “binds”.

B6: 41C-chi-mAb2: HC-41C chimeric anti-c-Met IgG1 antibody, VH SEQ ID NO:8, VL SEQ ID NO:4 (antibody, V domains shown)
VH: B5 VH with P41C
VL: QIVLTQSPAIMSASLGERVTMTCTASSSITSSYLHWYQQKPGSSPKLWIYSTTNLASGVPGRFSGSGSGTSFSLTISSMEAEDAATYYCHQYRRSPLTFGAGTKLELK
modifications: IgG1 constant regions; HCVR - VH P41C; LCVR
On to B6, for which, in the test with c-Met, the Functionality result is recorded as “Partial agonist”.

B7: 41C-chi-mAb2 (antibody, human IgG1, kappa, V domains shown)
VH: B5 VH with P41C
VL: B5 VL
notes: Chimeric IgG1 kappa with an engineered cysteine at HC position 41 (Kabat); also called HC-41C chimeric antibody mAb2
In the case of B7, the binding result in test [1] is “binds”.

B8: mAb3d (antibody, human IgG1, kappa, V domains shown)
VH: QVQLQESGAEVKKPGASVKVSCKASGYTFTDYYLNWVRQACGQGLEWMGLIFPGNDKTEYSEKFKGRVTMTRDTSTSTVYMELSSLRSEDTAVYYCSGGDYGGFVYWGQGTLVTVSS
VL: DIQLTQSPSSLSASVGDRVTITCGASENIYGALNWYQQKPGKAPKLLIYGATNLADGVPSRFSGSGSGTDFTLTISSLQPEDFATYYCQNVLSSPLTFGPGTKVDIKR
notes: Humanized IgG1 kappa, HC-41C, from wt/41C-chi-mAb3; also called humanized HC-41C antibody mAb3d
On to B8, for which the EC50 in test [2] came to 0.02 µg/mL; in [3], 0.03 µg/mL; in [5], 0.05 µg/mL; in test [6] it was 0.08 µg/mL; in test [7], 0.15 µg/mL; in [9], 0.03 µg/mL. Besides, the midpoint of the response in test [10], the EC50, lay at 0.07 µg/mL. Moreover, the “Fold shift (HGF)” value in [4] is 1.6 fold; in test [8], 7.5 fold; in [11], 2.7 fold.

B9: wt-chi-mAb1 (antibody, human IgG1, kappa, V domains shown)
VH: EVQLQQSGPELLKPGASVKMSCKASGYIFTDYFMNWVKQSHGKSLEWIGRVNPKNGDITYNQKFRGKATLTVDKSLTTAYMQLNSLTSEDSAVYFCAYDGYYDGMDFWGQGTSVTVSS
VL: ENVLTQSPAIMSASPGEKVTMTCRANSSVSSNFLHWYQQKSGASPKLWISSTSNLAFGVPPRFSGSGSGTSYSLTISSVEAEDAATYYCHQYSGHPFTFGSGTKLEIKR
notes: Mouse/human chimeric IgG1 kappa; also called wild-type chimeric antibody mAb1
Consider B9, for which, in test [1], the binding result is “binds”.

B10: wt-chi-mAb1: wild-type chimeric anti-c-Met IgG1 antibody, VH SEQ ID NO:1, VL SEQ ID NO:2 (antibody, V domains shown)
VH: B9 VH
VL: ENVLTQSPAIMSASPGEKVTMTCRANSSVSSNFLHWYQQKSGASPKLWISSTSNLAFGVPPRFSGSGSGTSYSLTISSVEAEDAATYYCHQYSGHPFTFGSGTKLEIK
modifications: human IgG1 constant regions; HCVR; LCVR
Take B10: the Functionality result with c-Met is “Partial agonist”.

B11: 41C-chi-mAb1 (antibody, human IgG1, kappa, V domains shown)
VH: B9 VH with H41C
VL: B9 VL
notes: Chimeric IgG1 kappa with an engineered cysteine at HC position 41 (Kabat); also called HC-41C chimeric antibody mAb1
On to B11, for which, in [1], the binding result was “binds”.

Usually EC50 stands for the midpoint of the concentration-response curve. The low end stands for an effect from little substance, the high end for a need for much substance.

Source of the values: patent publication US20240376214A1, “ANTI-C-MET ANTIBODIES AND ANTIBODY-DRUG CONJUGATES” (BYONDIS B.V., priority 2021, published 2024).
